The data set deals with the molecule itself. Description: […]; 20 mM sodium phosphate pH 7, 100 mM NaCl, 2 mM TCEP.

Experimental findings from publication PMC12242641 (ACS Omega, 2025) are described below.

B1: human tripartite motif-containing protein 25 (TRIM25), residues 183-380 (domain or fragment, UniProt Q14258 183-380, looked up)
chain: HKTCSPASLSQASADLEATLRHKLTVMYSQINGASRALDDVRNRQQDVRMTANRKVEQLQQEYTEMKALLDASETTSTRKIKEEEKRVNSKFDTIYQILLKKKSEIQTLKEEIEQSLTKRDEFEFLEKASKLRGISTKPVYIPEVELNHKLIKGIHQSTIDLKNELKQCIGRLQEPTPSSGDPGEHDPASTHKSTRPV
notes: not shown: His6, N-terminal, cleaved; SUMO, N-terminal, cleaved
Broadly, the stoichiometry N is the number of molecules, sites or subunits per partner or assembly. Take B1: the “stoichiometry N” value came out at 2.
